Consider six molecules from patent publication US20210139548A1 (published 2021).

T1: human neuropeptide Y2 receptor (human, UniProt P49146 1-381)
T1 construct: whole, on cells; also called hNPY2 receptor; hNPY2-R
T1 sequence (looked up): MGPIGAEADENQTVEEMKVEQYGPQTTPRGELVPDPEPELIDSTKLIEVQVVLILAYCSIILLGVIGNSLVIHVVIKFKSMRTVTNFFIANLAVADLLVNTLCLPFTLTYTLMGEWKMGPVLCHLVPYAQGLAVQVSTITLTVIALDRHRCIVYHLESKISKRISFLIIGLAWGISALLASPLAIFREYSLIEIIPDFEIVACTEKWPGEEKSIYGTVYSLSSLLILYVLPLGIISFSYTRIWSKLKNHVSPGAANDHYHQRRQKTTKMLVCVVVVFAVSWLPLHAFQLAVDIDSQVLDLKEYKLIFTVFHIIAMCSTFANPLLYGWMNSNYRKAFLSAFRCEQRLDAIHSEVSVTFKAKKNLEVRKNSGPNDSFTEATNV

B1: Compound 103 (peptide)
peptide: Isovaleryl-APAK([AEEA-AEEA-γGlu-C18 diacid])PEEDASEEELQRYYVSLRHYYNWLTRQRY-NH2
SMILES: CC(C)CC(=O)N[C@@H](C)C(=O)N1CCC[C@H]1C(=O)N[C@@H](C)C(=O)N[C@@H](CCCCNC(=O)COCCOCCNC(=O)COCCOCCNC(=O)CC[C@H](NC(=O)CCCCCCCCCCCCCCCCC(=O)O)C(=O)O)C(=O)N1CCC[C@H]1C(=O)N[C@@H](CCC(=O)O)C(=O)N[C@@H](CCC(=O)O)C(=O)N[C@@H](CC(=O)O)C(=O)N[C@@H](C)C(=O)N[C@@H](CO)C(=O)N[C@@H](CCC(=O)O)C(=O)N[C@@H](CCC(=O)O)C(=O)N[C@@H](CCC(=O)O)C(=O)N[C@@H](CC(C)C)C(=O)N[C@@H](CCC(N)=O)C(=O)N[C@@H](CCCNC(=N)N)C(=O)N[C@@H](Cc1ccc(O)cc1)C(=O)N[C@@H](Cc1ccc(O)cc1)C(=O)N[C@H](C(=O)N[C@@H](CO)C(=O)N[C@@H](CC(C)C)C(=O)N[C@@H](CCCNC(=N)N)C(=O)N[C@@H](Cc1c[nH]cn1)C(=O)N[C@@H](Cc1ccc(O)cc1)C(=O)N[C@@H](Cc1ccc(O)cc1)C(=O)N[C@@H](CC(N)=O)C(=O)N[C@@H](Cc1c[nH]c2ccccc12)C(=O)N[C@@H](CC(C)C)C(=O)N[C@H](C(=O)N[C@@H](CCCNC(=N)N)C(=O)N[C@@H](CCC(N)=O)C(=O)N[C@@H](CCCNC(=N)N)C(=O)N[C@@H](Cc1ccc(O)cc1)C(N)=O)[C@@H](C)O)C(C)C
B2: Compound 111 (peptide)
peptide: Isovaleryl-APEK([AEEA-AEEA-γGlu-C18 diacid])PEEDAEPEELQRYYVELRHYYNWLTRQRY-NH2
SMILES: CC(C)CC(=O)N[C@@H](C)C(=O)N1CCC[C@H]1C(=O)N[C@@H](CCC(=O)O)C(=O)N[C@@H](CCCCNC(=O)COCCOCCNC(=O)COCCOCCNC(=O)CC[C@H](NC(=O)CCCCCCCCCCCCCCCCC(=O)O)C(=O)O)C(=O)N1CCC[C@H]1C(=O)N[C@@H](CCC(=O)O)C(=O)N[C@@H](CCC(=O)O)C(=O)N[C@@H](CC(=O)O)C(=O)N[C@@H](C)C(=O)N[C@@H](CCC(=O)O)C(=O)N1CCC[C@H]1C(=O)N[C@@H](CCC(=O)O)C(=O)N[C@@H](CCC(=O)O)C(=O)N[C@@H](CC(C)C)C(=O)N[C@@H](CCC(N)=O)C(=O)N[C@@H](CCCNC(=N)N)C(=O)N[C@@H](Cc1ccc(O)cc1)C(=O)N[C@@H](Cc1ccc(O)cc1)C(=O)N[C@H](C(=O)N[C@@H](CCC(=O)O)C(=O)N[C@@H](CC(C)C)C(=O)N[C@@H](CCCNC(=N)N)C(=O)N[C@@H](Cc1c[nH]cn1)C(=O)N[C@@H](Cc1ccc(O)cc1)C(=O)N[C@@H](Cc1ccc(O)cc1)C(=O)N[C@@H](CC(N)=O)C(=O)N[C@@H](Cc1c[nH]c2ccccc12)C(=O)N[C@@H](CC(C)C)C(=O)N[C@H](C(=O)N[C@@H](CCCNC(=N)N)C(=O)N[C@@H](CCC(N)=O)C(=O)N[C@@H](CCCNC(=N)N)C(=O)N[C@@H](Cc1ccc(O)cc1)C(N)=O)[C@@H](C)O)C(C)C
B3: Compound 107 (peptide)
peptide: Isovaleryl-APEK([AEEA-AEEA-γGlu-C18 diacid])PEEDASPEELQKYYVALRHYYNWLTRQRY-NH2
SMILES: CC(C)CC(=O)N[C@@H](C)C(=O)N1CCC[C@H]1C(=O)N[C@@H](CCC(=O)O)C(=O)N[C@@H](CCCCNC(=O)COCCOCCNC(=O)COCCOCCNC(=O)CC[C@H](NC(=O)CCCCCCCCCCCCCCCCC(=O)O)C(=O)O)C(=O)N1CCC[C@H]1C(=O)N[C@@H](CCC(=O)O)C(=O)N[C@@H](CCC(=O)O)C(=O)N[C@@H](CC(=O)O)C(=O)N[C@@H](C)C(=O)N[C@@H](CO)C(=O)N1CCC[C@H]1C(=O)N[C@@H](CCC(=O)O)C(=O)N[C@@H](CCC(=O)O)C(=O)N[C@@H](CC(C)C)C(=O)N[C@@H](CCC(N)=O)C(=O)N[C@@H](CCCCN)C(=O)N[C@@H](Cc1ccc(O)cc1)C(=O)N[C@@H](Cc1ccc(O)cc1)C(=O)N[C@H](C(=O)N[C@@H](C)C(=O)N[C@@H](CC(C)C)C(=O)N[C@@H](CCCNC(=N)N)C(=O)N[C@@H](Cc1c[nH]cn1)C(=O)N[C@@H](Cc1ccc(O)cc1)C(=O)N[C@@H](Cc1ccc(O)cc1)C(=O)N[C@@H](CC(N)=O)C(=O)N[C@@H](Cc1c[nH]c2ccccc12)C(=O)N[C@@H](CC(C)C)C(=O)N[C@H](C(=O)N[C@@H](CCCNC(=N)N)C(=O)N[C@@H](CCC(N)=O)C(=O)N[C@@H](CCCNC(=N)N)C(=O)N[C@@H](Cc1ccc(O)cc1)C(N)=O)[C@@H](C)O)C(C)C
B4: Compound 108 (peptide)
peptide: Isovaleryl-APEK([AEEA-AEEA-γGlu-C18 diacid])PEEDASPEELQRYYVELRHYYNWLTRQRY-NH2
SMILES: CC(C)CC(=O)N[C@@H](C)C(=O)N1CCC[C@H]1C(=O)N[C@@H](CCC(=O)O)C(=O)N[C@@H](CCCCNC(=O)COCCOCCNC(=O)COCCOCCNC(=O)CC[C@H](NC(=O)CCCCCCCCCCCCCCCCC(=O)O)C(=O)O)C(=O)N1CCC[C@H]1C(=O)N[C@@H](CCC(=O)O)C(=O)N[C@@H](CCC(=O)O)C(=O)N[C@@H](CC(=O)O)C(=O)N[C@@H](C)C(=O)N[C@@H](CO)C(=O)N1CCC[C@H]1C(=O)N[C@@H](CCC(=O)O)C(=O)N[C@@H](CCC(=O)O)C(=O)N[C@@H](CC(C)C)C(=O)N[C@@H](CCC(N)=O)C(=O)N[C@@H](CCCNC(=N)N)C(=O)N[C@@H](Cc1ccc(O)cc1)C(=O)N[C@@H](Cc1ccc(O)cc1)C(=O)N[C@H](C(=O)N[C@@H](CCC(=O)O)C(=O)N[C@@H](CC(C)C)C(=O)N[C@@H](CCCNC(=N)N)C(=O)N[C@@H](Cc1c[nH]cn1)C(=O)N[C@@H](Cc1ccc(O)cc1)C(=O)N[C@@H](Cc1ccc(O)cc1)C(=O)N[C@@H](CC(N)=O)C(=O)N[C@@H](Cc1c[nH]c2ccccc12)C(=O)N[C@@H](CC(C)C)C(=O)N[C@H](C(=O)N[C@@H](CCCNC(=N)N)C(=O)N[C@@H](CCC(N)=O)C(=O)N[C@@H](CCCNC(=N)N)C(=O)N[C@@H](Cc1ccc(O)cc1)C(N)=O)[C@@H](C)O)C(C)C
B5: Compound 110 (peptide)
peptide: Isovaleryl-APEK([AEEA-AEEA-γGlu-C18 diacid])PEEDAEPEEIQRYYVSLRHYYNWLTRQRY-NH2
SMILES: CC[C@H](C)[C@H](NC(=O)[C@H](CCC(=O)O)NC(=O)[C@H](CCC(=O)O)NC(=O)[C@@H]1CCCN1C(=O)[C@H](CCC(=O)O)NC(=O)[C@H](C)NC(=O)[C@H](CC(=O)O)NC(=O)[C@H](CCC(=O)O)NC(=O)[C@H](CCC(=O)O)NC(=O)[C@@H]1CCCN1C(=O)[C@H](CCCCNC(=O)COCCOCCNC(=O)COCCOCCNC(=O)CC[C@H](NC(=O)CCCCCCCCCCCCCCCCC(=O)O)C(=O)O)NC(=O)[C@H](CCC(=O)O)NC(=O)[C@@H]1CCCN1C(=O)[C@H](C)NC(=O)CC(C)C)C(=O)N[C@@H](CCC(N)=O)C(=O)N[C@@H](CCCNC(=N)N)C(=O)N[C@@H](Cc1ccc(O)cc1)C(=O)N[C@@H](Cc1ccc(O)cc1)C(=O)N[C@H](C(=O)N[C@@H](CO)C(=O)N[C@@H](CC(C)C)C(=O)N[C@@H](CCCNC(=N)N)C(=O)N[C@@H](Cc1c[nH]cn1)C(=O)N[C@@H](Cc1ccc(O)cc1)C(=O)N[C@@H](Cc1ccc(O)cc1)C(=O)N[C@@H](CC(N)=O)C(=O)N[C@@H](Cc1c[nH]c2ccccc12)C(=O)N[C@@H](CC(C)C)C(=O)N[C@H](C(=O)N[C@@H](CCCNC(=N)N)C(=O)N[C@@H](CCC(N)=O)C(=O)N[C@@H](CCCNC(=N)N)C(=O)N[C@@H](Cc1ccc(O)cc1)C(N)=O)[C@@H](C)O)C(C)C
B6: Compound 109 (peptide)
peptide: Isovaleryl-APEK([AEEA-AEEA-γGlu-C18 diacid])PEEAASPEELQRYYVSLRHYYNWLTRQRY-NH2
SMILES: CC(C)CC(=O)N[C@@H](C)C(=O)N1CCC[C@H]1C(=O)N[C@@H](CCC(=O)O)C(=O)N[C@@H](CCCCNC(=O)COCCOCCNC(=O)COCCOCCNC(=O)CC[C@H](NC(=O)CCCCCCCCCCCCCCCCC(=O)O)C(=O)O)C(=O)N1CCC[C@H]1C(=O)N[C@@H](CCC(=O)O)C(=O)N[C@@H](CCC(=O)O)C(=O)N[C@@H](C)C(=O)N[C@@H](C)C(=O)N[C@@H](CO)C(=O)N1CCC[C@H]1C(=O)N[C@@H](CCC(=O)O)C(=O)N[C@@H](CCC(=O)O)C(=O)N[C@@H](CC(C)C)C(=O)N[C@@H](CCC(N)=O)C(=O)N[C@@H](CCCNC(=N)N)C(=O)N[C@@H](Cc1ccc(O)cc1)C(=O)N[C@@H](Cc1ccc(O)cc1)C(=O)N[C@H](C(=O)N[C@@H](CO)C(=O)N[C@@H](CC(C)C)C(=O)N[C@@H](CCCNC(=N)N)C(=O)N[C@@H](Cc1c[nH]cn1)C(=O)N[C@@H](Cc1ccc(O)cc1)C(=O)N[C@@H](Cc1ccc(O)cc1)C(=O)N[C@@H](CC(N)=O)C(=O)N[C@@H](Cc1c[nH]c2ccccc12)C(=O)N[C@@H](CC(C)C)C(=O)N[C@H](C(=O)N[C@@H](CCCNC(=N)N)C(=O)N[C@@H](CCC(N)=O)C(=O)N[C@@H](CCCNC(=N)N)C(=O)N[C@@H](Cc1ccc(O)cc1)C(N)=O)[C@@H](C)O)C(C)C

*1 amine or outer side, *2 acyl side, *3 side chain or, on linkers, in order; H or OH if unused. Side-chain parts run from the residue outwards. The star is where a group is joined. C18 diacid = O=C(O)CCCCCCCCCCCCCCCCC(=O)*; γGlu = O=C(O)[C@H](CCC(=O)[*:2])N[*:1]; Isovaleryl = CC(C)CC(=O)*; AEEA = NCCOCCOCC(=O)O

The target of the experiment is T1, human neuropeptide Y2 receptor. As to the kind of experiment: radioligand competition (125I-PYY(1-36)), hNPY2R membranes. Summed up: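 Commercial human Y2 receptor membranes (0.5 μg protein/well) were incubated with peptide for 2 h at room temperature in 50 mM HEPES, 5 mM MgCl₂, 1 mM CaCl₂, pH 7.4, with 0.2% ovalbumin. Bound radioligand was separated on PEI-soaked GF/C filters and counted by scintillation, and IC₅₀ came from nonlinear sigmoidal regression.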
(In a radioligand displacement assay an active substance lowers the binding of a labelled ligand.)
With B1, the affinity corresponds to a Ki of 950 pM.

B2: affinity was put at a Ki of 5430 pM.

With B3, the Ki (usually a measure of affinity in units of concentration, obtained from inhibition or displacement) came to 1100 pM.

In turn, B4 showed a Ki of 990 pM.

Turning to B5, the Ki was found to be 770 pM.

In turn, B6 came in with an inhibition constant Ki of 940 pM.
